The target in the test is His-GB1-tagged C-domain of CRT_(Del52) (human) (UniProt P27797). Description: non-reducing SDS-PAGE with immunoblot. Background: A western blot detects proteins with antibodies after separation by electrophoresis.

This is an account of results in doi:10.1101/2020.09.13.295485.

Broadly, the stoichiometry N is a count of units in the complex or per binding partner.

“His-GB1-tagged C-domain of CRT_(Del52) (from UniProt P27797 357-366) (domain or fragment)” displayed a stoichiometry N of 2.
